Laboratory results: patent publication US20210388110A1 (published 2021)

B1: TR01H040-E22Hh/none-Hi-Kn010G3/L0248-k0 (antibody, human IgG1, kappa, L234A L235A, N297A)
heavy: QVQLVESGGGLVQPGRSLRLSCAASGFTFSNAWMHWVRQAPGKGLEWVAQIKDKSQNYATYYAESVKGRFTISRADSKNSIYLQMNSLKTEDTAVYYCRYVHYSASYGVDAWGQGTTVTVSSASTKGPSVFPLAPSSKSTSGGTAALGCLVKDYFPEPVTVSWNSGALTSGVHTFPAVLQSSGLYSLSSVVTVPSSSLGTQTYICNVNHKPSNTKVDKKVEPKSCDKTHTCPPCPAPEAAGGPSVFLFPPKPKDTLMISRTPEVTCVVVDVSHEDPEVKFNWYVDGVEVHNAKTKPREEQYASTYRVVSVLTVLHQDWLNGKEYKCKVSNKALPAPIEKTISKAKGQPREPQVYTLPPSRCELTKNQVSLSCAVKGFYPSDIAVEWESNGQPENNYKTTPPVLDSDGSFFLVSKLTVDKSRWQQGNVFSCSVMHEALHNHYTQKSLSLSPDYKDDDDK
chain: EPKSSDKTHTCPPCPAPELLGGPSVFLFPPKPKDTLMISRTPEVTCVVVDVSHEDPEVKFNWYVDGVEVHNAKTKPREEQYNSTYRVVSVLTVLHQDWLNGKEYKCKVSNKALPAPIEKTISKAKGQPREPQVCTLPPSRDELTKNQVSLWCLVKGFYPSDIAVEWESNGQPENNYKTTPPVLDSDGSFFLYSKLTVDKSRWQQGNVFSCSVMHEALHNRYTQKSLSLSP
light: DIVMTQSPLSLPVTPGEPASISCRPSQSPVHSNRNTYIQWYQQKPGQAPRLLIYKVSNRFSGVPDRFSGSGSGTDFTLKISRVEAEDVGVYYCYQGTQVPYTFGQGTKLEIKRTVAAPSVFIFPPSDEQLKSGTASVVCLLNNFYPREAKVQWKVDNALQSGNSQESVTEQDSKDSTYSLSSTLTLSKADYEKHKVYACEVTHQGLSSPVTKSFNRGEC
notes: one-arm antibody (single Fab) with Fab-less hinge-Fc chain Hi-Kn010G3
B2: TR01H040-E22Hh/none-Hi-Kn010G3/L0249-k0 (antibody, human IgG1, kappa, L234A L235A, N297A)
heavy: QVQLVESGGGLVQPGRSLRLSCAASGFTFSNAWMHWVRQAPGKGLEWVAQIKDKSQNYATYYAESVKGRFTISRADSKNSIYLQMNSLKTEDTAVYYCRYVHYSASYGVDAWGQGTTVTVSSASTKGPSVFPLAPSSKSTSGGTAALGCLVKDYFPEPVTVSWNSGALTSGVHTFPAVLQSSGLYSLSSVVTVPSSSLGTQTYICNVNHKPSNTKVDKKVEPKSCDKTHTCPPCPAPEAAGGPSVFLFPPKPKDTLMISRTPEVTCVVVDVSHEDPEVKFNWYVDGVEVHNAKTKPREEQYASTYRVVSVLTVLHQDWLNGKEYKCKVSNKALPAPIEKTISKAKGQPREPQVYTLPPSRCELTKNQVSLSCAVKGFYPSDIAVEWESNGQPENNYKTTPPVLDSDGSFFLVSKLTVDKSRWQQGNVFSCSVMHEALHNHYTQKSLSLSPDYKDDDDK
chain: EPKSSDKTHTCPPCPAPELLGGPSVFLFPPKPKDTLMISRTPEVTCVVVDVSHEDPEVKFNWYVDGVEVHNAKTKPREEQYNSTYRVVSVLTVLHQDWLNGKEYKCKVSNKALPAPIEKTISKAKGQPREPQVCTLPPSRDELTKNQVSLWCLVKGFYPSDIAVEWESNGQPENNYKTTPPVLDSDGSFFLYSKLTVDKSRWQQGNVFSCSVMHEALHNRYTQKSLSLSP
light: DIVMTQSPLSLPVTPGEPASISCRPSQSPVHSNRNTYIQWYQQKPGQAPRLLIYKVSNRFSGVPDRFSGSGSGTDFTLKISRVEAEDVGVYYCSQGTQVPYTFGQGTKLEIKRTVAAPSVFIFPPSDEQLKSGTASVVCLLNNFYPREAKVQWKVDNALQSGNSQESVTEQDSKDSTYSLSSTLTLSKADYEKHKVYACEVTHQGLSSPVTKSFNRGEC
notes: as for B1
B3: TR01H040-E22Hh/none-Hi-Kn010G3/TR01L007-k0 (antibody, human IgG1, kappa, L234A L235A, N297A)
heavy: QVQLVESGGGLVQPGRSLRLSCAASGFTFSNAWMHWVRQAPGKGLEWVAQIKDKSQNYATYYAESVKGRFTISRADSKNSIYLQMNSLKTEDTAVYYCRYVHYSASYGVDAWGQGTTVTVSSASTKGPSVFPLAPSSKSTSGGTAALGCLVKDYFPEPVTVSWNSGALTSGVHTFPAVLQSSGLYSLSSVVTVPSSSLGTQTYICNVNHKPSNTKVDKKVEPKSCDKTHTCPPCPAPEAAGGPSVFLFPPKPKDTLMISRTPEVTCVVVDVSHEDPEVKFNWYVDGVEVHNAKTKPREEQYASTYRVVSVLTVLHQDWLNGKEYKCKVSNKALPAPIEKTISKAKGQPREPQVYTLPPSRCELTKNQVSLSCAVKGFYPSDIAVEWESNGQPENNYKTTPPVLDSDGSFFLVSKLTVDKSRWQQGNVFSCSVMHEALHNHYTQKSLSLSPDYKDDDDK
chain: EPKSSDKTHTCPPCPAPELLGGPSVFLFPPKPKDTLMISRTPEVTCVVVDVSHEDPEVKFNWYVDGVEVHNAKTKPREEQYNSTYRVVSVLTVLHQDWLNGKEYKCKVSNKALPAPIEKTISKAKGQPREPQVCTLPPSRDELTKNQVSLWCLVKGFYPSDIAVEWESNGQPENNYKTTPPVLDSDGSFFLYSKLTVDKSRWQQGNVFSCSVMHEALHNRYTQKSLSLSP
light: DIVMTQSPLSLPVTPGEPASISCQASESLVHSNRNTYLHWYLQKPGQSPQLLIYKVSNRFSGVPDRFSGSGSGTDFTLKISRVEAEDVGVYYCGQGTQVPYTFGQGTKLEIKRTVAAPSVFIFPPSDEQLKSGTASVVCLLNNFYPREAKVQWKVDNALQSGNSQESVTEQDSKDSTYSLSSTLTLSKADYEKHKVYACEVTHQGLSSPVTKSFNRGEC
notes: as for B1
B4: TR01H053-E22Hh/none-Hi-Kn010G3/L0000-k0 (antibody, human IgG1, kappa, L234A L235A, N297A)
heavy: QVQLVESGGGLVQPGRSLRLSCAASGFTFSNAWMHWVRQAPGKGLEWVAQIKDKSQNYATYYAESVKGRFTISRADSKNSLYLQMNSLKTEDTAVYYCRYVHYSASYGVDAWGQGTTVTVSSASTKGPSVFPLAPSSKSTSGGTAALGCLVKDYFPEPVTVSWNSGALTSGVHTFPAVLQSSGLYSLSSVVTVPSSSLGTQTYICNVNHKPSNTKVDKKVEPKSCDKTHTCPPCPAPEAAGGPSVFLFPPKPKDTLMISRTPEVTCVVVDVSHEDPEVKFNWYVDGVEVHNAKTKPREEQYASTYRVVSVLTVLHQDWLNGKEYKCKVSNKALPAPIEKTISKAKGQPREPQVYTLPPSRCELTKNQVSLSCAVKGFYPSDIAVEWESNGQPENNYKTTPPVLDSDGSFFLVSKLTVDKSRWQQGNVFSCSVMHEALHNHYTQKSLSLSPDYKDDDDK
chain: EPKSSDKTHTCPPCPAPELLGGPSVFLFPPKPKDTLMISRTPEVTCVVVDVSHEDPEVKFNWYVDGVEVHNAKTKPREEQYNSTYRVVSVLTVLHQDWLNGKEYKCKVSNKALPAPIEKTISKAKGQPREPQVCTLPPSRDELTKNQVSLWCLVKGFYPSDIAVEWESNGQPENNYKTTPPVLDSDGSFFLYSKLTVDKSRWQQGNVFSCSVMHEALHNRYTQKSLSLSP
light: DIVMTQSPLSLPVTPGEPASISCRSSQSLVHSNRNTYLHWYQQKPGQAPRLLIYKVSNRFSGVPDRFSGSGSGTDFTLKISRVEAEDVGVYYCGQGTQVPYTFGQGTKLEIKRTVAAPSVFIFPPSDEQLKSGTASVVCLLNNFYPREAKVQWKVDNALQSGNSQESVTEQDSKDSTYSLSSTLTLSKADYEKHKVYACEVTHQGLSSPVTKSFNRGEC
notes: as for B1
B5: TR01H054-E22Hh/none-Hi-Kn010G3/L0000-k0 (antibody, human IgG1, kappa, L234A L235A, N297A)
heavy: QVQLVESGGGLVQPGRSLRLSCAASGFTFSNAWMHWVRQAPGKGLEWVAQIKDKSQNYATYYAESVKGRFTISRADSKNSLYLQMNSLKTEDTAVYYCRYVHYSASYGVDYWGQGTTVTVSSASTKGPSVFPLAPSSKSTSGGTAALGCLVKDYFPEPVTVSWNSGALTSGVHTFPAVLQSSGLYSLSSVVTVPSSSLGTQTYICNVNHKPSNTKVDKKVEPKSCDKTHTCPPCPAPEAAGGPSVFLFPPKPKDTLMISRTPEVTCVVVDVSHEDPEVKFNWYVDGVEVHNAKTKPREEQYASTYRVVSVLTVLHQDWLNGKEYKCKVSNKALPAPIEKTISKAKGQPREPQVYTLPPSRCELTKNQVSLSCAVKGFYPSDIAVEWESNGQPENNYKTTPPVLDSDGSFFLVSKLTVDKSRWQQGNVFSCSVMHEALHNHYTQKSLSLSPDYKDDDDK
chain: EPKSSDKTHTCPPCPAPELLGGPSVFLFPPKPKDTLMISRTPEVTCVVVDVSHEDPEVKFNWYVDGVEVHNAKTKPREEQYNSTYRVVSVLTVLHQDWLNGKEYKCKVSNKALPAPIEKTISKAKGQPREPQVCTLPPSRDELTKNQVSLWCLVKGFYPSDIAVEWESNGQPENNYKTTPPVLDSDGSFFLYSKLTVDKSRWQQGNVFSCSVMHEALHNRYTQKSLSLSP
light: DIVMTQSPLSLPVTPGEPASISCRSSQSLVHSNRNTYLHWYQQKPGQAPRLLIYKVSNRFSGVPDRFSGSGSGTDFTLKISRVEAEDVGVYYCGQGTQVPYTFGQGTKLEIKRTVAAPSVFIFPPSDEQLKSGTASVVCLLNNFYPREAKVQWKVDNALQSGNSQESVTEQDSKDSTYSLSSTLTLSKADYEKHKVYACEVTHQGLSSPVTKSFNRGEC
notes: as for B1
B6: TR01H056-E22Hh/none-Hi-Kn010G3/L0000-k0 (antibody, human IgG1, kappa, L234A L235A, N297A)
heavy: QVQLVESGGGLVQPGRSLRLSCAASGFTFSNAWMHWVRQAPGKGLEWVAQIKDKSQNYATYYAESVKGRFTISRDDSKNSLYLQMNSLKTEDTAVYYCRYVHYSASYGVDIWGQGTTVTVSSASTKGPSVFPLAPSSKSTSGGTAALGCLVKDYFPEPVTVSWNSGALTSGVHTFPAVLQSSGLYSLSSVVTVPSSSLGTQTYICNVNHKPSNTKVDKKVEPKSCDKTHTCPPCPAPEAAGGPSVFLFPPKPKDTLMISRTPEVTCVVVDVSHEDPEVKFNWYVDGVEVHNAKTKPREEQYASTYRVVSVLTVLHQDWLNGKEYKCKVSNKALPAPIEKTISKAKGQPREPQVYTLPPSRCELTKNQVSLSCAVKGFYPSDIAVEWESNGQPENNYKTTPPVLDSDGSFFLVSKLTVDKSRWQQGNVFSCSVMHEALHNHYTQKSLSLSPDYKDDDDK
chain: EPKSSDKTHTCPPCPAPELLGGPSVFLFPPKPKDTLMISRTPEVTCVVVDVSHEDPEVKFNWYVDGVEVHNAKTKPREEQYNSTYRVVSVLTVLHQDWLNGKEYKCKVSNKALPAPIEKTISKAKGQPREPQVCTLPPSRDELTKNQVSLWCLVKGFYPSDIAVEWESNGQPENNYKTTPPVLDSDGSFFLYSKLTVDKSRWQQGNVFSCSVMHEALHNRYTQKSLSLSP
light: DIVMTQSPLSLPVTPGEPASISCRSSQSLVHSNRNTYLHWYQQKPGQAPRLLIYKVSNRFSGVPDRFSGSGSGTDFTLKISRVEAEDVGVYYCGQGTQVPYTFGQGTKLEIKRTVAAPSVFIFPPSDEQLKSGTASVVCLLNNFYPREAKVQWKVDNALQSGNSQESVTEQDSKDSTYSLSSTLTLSKADYEKHKVYACEVTHQGLSSPVTKSFNRGEC
notes: as for B1

Biological target: T1, soluble human CD3ε chain (human, UniProt P07766 23-126, limits assumed)
T1 construct: also called human CD3 epsilon chain
T1 sequence (P07766 23-126 limits assumed): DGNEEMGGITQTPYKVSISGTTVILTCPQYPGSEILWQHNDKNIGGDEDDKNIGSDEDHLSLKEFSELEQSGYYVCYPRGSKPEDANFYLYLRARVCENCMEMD
Test: SPR (Biacore), soluble human CD3ε chain

Row | Kd | Binder
1 | 78.9 nM | B1
2 | 111 nM | B2
3 | 68.2 nM | B3
4 | 82.3 nM | B4
5 | 77.9 nM | B5
6 | 73.2 nM | B6
